Experimental data as given in patent US20170319722A1.

Key:
[1] = target: CD8 on human peripheral blood mononuclear cells (PBMCs) (human) (UniProt P01732); experiment: flow cytometry, human PBMCs, co-stained with CD3-APC mAb
[2] = target: His-tagged CD8α human recombinant protein (TP760215, Origene) (human) (UniProt P01732); experiment: sandwich ELISA; biotinylated ligand on NeutrAvidin plate, His-tagged CD8α titrated, anti-His-AP detection
Sequence of His-tagged CD8α human recombinant protein (TP760215, Origene) (human) (P01732 22-182 limits assumed): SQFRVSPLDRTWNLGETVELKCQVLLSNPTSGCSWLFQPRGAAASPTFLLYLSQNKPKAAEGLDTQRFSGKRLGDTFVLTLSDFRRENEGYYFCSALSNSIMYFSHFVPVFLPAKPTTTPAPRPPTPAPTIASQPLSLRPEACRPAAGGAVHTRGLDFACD

Sequence of CD8 on human peripheral blood mononuclear cells (PBMCs) (human) (P01732 22-235): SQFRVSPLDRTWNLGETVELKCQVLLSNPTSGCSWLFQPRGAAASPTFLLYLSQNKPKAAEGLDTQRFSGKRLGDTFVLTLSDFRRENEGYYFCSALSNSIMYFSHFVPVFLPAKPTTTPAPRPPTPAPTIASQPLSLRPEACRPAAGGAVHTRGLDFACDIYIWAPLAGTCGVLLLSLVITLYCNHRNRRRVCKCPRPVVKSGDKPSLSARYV

human CD8-FITC mAb (clone: RPA-T8) (#561947, BD Biosciences) (antibody)
% of cells detected (Q2) [1]: 11.2% | % of cells detected (Q4) [1]: 2.1%

biotin-PEG3-Cy(yGGvr) (peptide)
EC50 [2]: 0.01 µM

biotin-PEG3-Cy(slrfG) (peptide)
EC50 [2]: 0.02 µM
